± gives the standard deviation of the averaged measurements.
B1: library; a variant is named by its letters at N, in order (parent)
chain: GCUGUCACCGGUGUAUUACCCUAGUGGUCGACCGGUCUGAUGAGUCUNNNNNNAGACGAAACAGC

Experiments:
hypoxanthine [1] = variants of: B1; test: normalized RNA/DNA level with ligand (relative to sTRSVctl = 100) (log10 (% of sTRSVctl)); ligand: hypoxanthine (xanthine aptamer); higher = less ribozyme self-cleavage, higher mRNA level; settings: ligand concentration (+) RNA-Seq: 5 mM, HEK293T, reporter: mCherry (pCS4076), ligand present: yes
In short: (§1)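 Ribozyme switch library plasmids linked to reporters were introduced into HEK293T cells at 4 µg per 6-well well, with ligand, if any, added 1 h before. Total RNA was extracted with EDTA 72 h later, reverse-transcribed, amplified, barcoded and sequenced. RNA level was computed from RNA over DNA reads relative to a spiked-in non-cleaving sequence or the top sequences, then scaled and log-transformed. The top set was 25 sequences, values were ×100 and log10, and the cutoff was ≥100 DNA reads.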

hypoxanthine [2] = variants of: B1; test: normalized RNA/DNA level without ligand (relative to sTRSVctl = 100) (log10 (% of sTRSVctl)); ligand: hypoxanthine (xanthine aptamer); higher = less ribozyme self-cleavage, higher mRNA level; settings: HEK293T, reporter: mCherry (pCS4076), ligand present: no
In short: as §1

Variant	normalized RNA/DNA level with ligand (log10) (hypoxanthine [1])	normalized RNA/DNA level without ligand (log10) (hypoxanthine [2])
GCUGUCACCGGUGUAUUACCCUAGUGGUCGACCGGUCUGAUGAGUCUAGAACUAGACGAAACAGC [AGAACU]	1.96 ± 0.035	1.83 ± 0.022
GCUGUCACCGGUGUAUUACCCUAGUGGUCGACCGGUCUGAUGAGUCUCGACCAAGACGAAACAGC [CGACCA]	1.99 ± 0.045	1.85 ± 0.053
GCUGUCACCGGUGUAUUACCCUAGUGGUCGACCGGUCUGAUGAGUCUCGACCGAGACGAAACAGC [CGACCG]	1.905 ± 0.0089	1.92 ± 0.023
GCUGUCACCGGUGUAUUACCCUAGUGGUCGACCGGUCUGAUGAGUCUCGACCCAGACGAAACAGC [CGACCC]	2.03 ± 0.046	1.98 ± 0.086
GCUGUCACCGGUGUAUUACCCUAGUGGUCGACCGGUCUGAUGAGUCUCGACCUAGACGAAACAGC [CGACCU]	1.98 ± 0.032	1.92 ± 0.056
GCUGUCACCGGUGUAUUACCCUAGUGGUCGACCGGUCUGAUGAGUCUGGACAUAGACGAAACAGC [GGACAU]	1.886 ± 0.0069	1.8 ± 0.038
GCUGUCACCGGUGUAUUACCCUAGUGGUCGACCGGUCUGAUGAGUCUGGACAGAGACGAAACAGC [GGACAG]	1.85 ± 0.055	1.468 ± 0.0059
GCUGUCACCGGUGUAUUACCCUAGUGGUCGACCGGUCUGAUGAGUCUUGACAAAGACGAAACAGC [UGACAA]	1.918 ± 0.012	1.74 ± 0.078
GCUGUCACCGGUGUAUUACCCUAGUGGUCGACCGGUCUGAUGAGUCUUGACAUAGACGAAACAGC [UGACAU]	1.937 ± 0.0061	1.81 ± 0.033
GCUGUCACCGGUGUAUUACCCUAGUGGUCGACCGGUCUGAUGAGUCUCGACGAAGACGAAACAGC [CGACGA]	1.93 ± 0.064	1.803 ± 0.0041
GCUGUCACCGGUGUAUUACCCUAGUGGUCGACCGGUCUGAUGAGUCUCGACAGAGACGAAACAGC [CGACAG]	1.93 ± 0.037	1.68 ± 0.053
GCUGUCACCGGUGUAUUACCCUAGUGGUCGACCGGUCUGAUGAGUCUCGACAUAGACGAAACAGC [CGACAU]	1.887 ± 0.012	1.74 ± 0.021
GCUGUCACCGGUGUAUUACCCUAGUGGUCGACCGGUCUGAUGAGUCUCGACAAAGACGAAACAGC [CGACAA]	1.89 ± 0.061	1.64 ± 0.012
GCUGUCACCGGUGUAUUACCCUAGUGGUCGACCGGUCUGAUGAGUCUGGAAGUAGACGAAACAGC [GGAAGU]	1.91 ± 0.047	1.7 ± 0.02
GCUGUCACCGGUGUAUUACCCUAGUGGUCGACCGGUCUGAUGAGUCUCGAAUUAGACGAAACAGC [CGAAUU]	1.95 ± 0.046	1.807 ± 0.00086
GCUGUCACCGGUGUAUUACCCUAGUGGUCGACCGGUCUGAUGAGUCUCGAAUCAGACGAAACAGC [CGAAUC]	1.98 ± 0.028	1.96 ± 0.042
GCUGUCACCGGUGUAUUACCCUAGUGGUCGACCGGUCUGAUGAGUCUCGAAUGAGACGAAACAGC [CGAAUG]	1.913 ± 0.003	1.883 ± 0.008
GCUGUCACCGGUGUAUUACCCUAGUGGUCGACCGGUCUGAUGAGUCUAGAAUCAGACGAAACAGC [AGAAUC]	1.94 ± 0.086	1.91 ± 0.048
GCUGUCACCGGUGUAUUACCCUAGUGGUCGACCGGUCUGAUGAGUCUAGAAUUAGACGAAACAGC [AGAAUU]	1.926 ± 0.017	1.86 ± 0.025
GCUGUCACCGGUGUAUUACCCUAGUGGUCGACCGGUCUGAUGAGUCUAGAAUAAGACGAAACAGC [AGAAUA]	1.92 ± 0.012	1.77 ± 0.03
GCUGUCACCGGUGUAUUACCCUAGUGGUCGACCGGUCUGAUGAGUCUUGAAGCAGACGAAACAGC [UGAAGC]	1.925 ± 0.0097	1.807 ± 0.01

Variant	normalized RNA/DNA level with ligand (log10) (hypoxanthine [1])	normalized RNA/DNA level without ligand (log10) (hypoxanthine [2])
GCUGUCACCGGUGUAUUACCCUAGUGGUCGACCGGUCUGAUGAGUCUUGAAGGAGACGAAACAGC [UGAAGG]	1.83 ± 0.055	1.48 ± 0.062
GCUGUCACCGGUGUAUUACCCUAGUGGUCGACCGGUCUGAUGAGUCUUGAAUGAGACGAAACAGC [UGAAUG]	1.9 ± 0.0011	1.75 ± 0.061
GCUGUCACCGGUGUAUUACCCUAGUGGUCGACCGGUCUGAUGAGUCUUGAAUCAGACGAAACAGC [UGAAUC]	1.943 ± 0.013	1.96 ± 0.022
GCUGUCACCGGUGUAUUACCCUAGUGGUCGACCGGUCUGAUGAGUCUUGAAUAAGACGAAACAGC [UGAAUA]	1.93 ± 0.026	1.86 ± 0.019
GCUGUCACCGGUGUAUUACCCUAGUGGUCGACCGGUCUGAUGAGUCUUGAAUUAGACGAAACAGC [UGAAUU]	1.93 ± 0.021	1.897 ± 0.014
GCUGUCACCGGUGUAUUACCCUAGUGGUCGACCGGUCUGAUGAGUCUAGACCUAGACGAAACAGC [AGACCU]	1.92 ± 0.023	1.88 ± 0.044
GCUGUCACCGGUGUAUUACCCUAGUGGUCGACCGGUCUGAUGAGUCUAGACCGAGACGAAACAGC [AGACCG]	1.925 ± 0.004	1.75 ± 0.067
GCUGUCACCGGUGUAUUACCCUAGUGGUCGACCGGUCUGAUGAGUCUAGACCAAGACGAAACAGC [AGACCA]	1.93 ± 0.046	1.85 ± 0.015
GCUGUCACCGGUGUAUUACCCUAGUGGUCGACCGGUCUGAUGAGUCUGGACCCAGACGAAACAGC [GGACCC]	1.96 ± 0.065	1.93 ± 0.023
GCUGUCACCGGUGUAUUACCCUAGUGGUCGACCGGUCUGAUGAGUCUGGACCAAGACGAAACAGC [GGACCA]	1.916 ± 0.0027	1.881 ± 0.0056
GCUGUCACCGGUGUAUUACCCUAGUGGUCGACCGGUCUGAUGAGUCUGGACCUAGACGAAACAGC [GGACCU]	1.98 ± 0.056	1.9838 ± 0.0012
GCUGUCACCGGUGUAUUACCCUAGUGGUCGACCGGUCUGAUGAGUCUGGAAUCAGACGAAACAGC [GGAAUC]	1.9 ± 0.035	1.81 ± 0.057
GCUGUCACCGGUGUAUUACCCUAGUGGUCGACCGGUCUGAUGAGUCUAGACACAGACGAAACAGC [AGACAC]	1.92 ± 0.025	1.76 ± 0.033
GCUGUCACCGGUGUAUUACCCUAGUGGUCGACCGGUCUGAUGAGUCUUGACCUAGACGAAACAGC [UGACCU]	2.004 ± 0.012	1.92 ± 0.021
GCUGUCACCGGUGUAUUACCCUAGUGGUCGACCGGUCUGAUGAGUCUUGACCGAGACGAAACAGC [UGACCG]	1.96 ± 0.094	1.79 ± 0.046
GCUGUCACCGGUGUAUUACCCUAGUGGUCGACCGGUCUGAUGAGUCUUGACCCAGACGAAACAGC [UGACCC]	2.002 ± 0.0071	1.94 ± 0.024
GCUGUCACCGGUGUAUUACCCUAGUGGUCGACCGGUCUGAUGAGUCUUGACCAAGACGAAACAGC [UGACCA]	1.93 ± 0.058	1.886 ± 0.0032
GCUGUCACCGGUGUAUUACCCUAGUGGUCGACCGGUCUGAUGAGUCUAGAAGUAGACGAAACAGC [AGAAGU]	1.85 ± 0.034	1.51 ± 0.029
GCUGUCACCGGUGUAUUACCCUAGUGGUCGACCGGUCUGAUGAGUCUAGAAGCAGACGAAACAGC [AGAAGC]	1.918 ± 0.0099	1.7002 ± 0.0015
GCUGUCACCGGUGUAUUACCCUAGUGGUCGACCGGUCUGAUGAGUCUCGAAGCAGACGAAACAGC [CGAAGC]	1.948 ± 0.0063	1.811 ± 0.012
GCUGUCACCGGUGUAUUACCCUAGUGGUCGACCGGUCUGAUGAGUCUCGAAGUAGACGAAACAGC [CGAAGU]	1.93 ± 0.022	1.86 ± 0.046
